The target of assay [1] is human CD40 expressed on cells (CD40 reporter cells, HEK Blue CD40L cells, B cells, Raji cells) (human, UniProt P25942 21-277). Description: cell-based or functional assay.
In assay [2] the target is T1, human CEACAM1 expressed on CHO cells (human, UniProt P13688 35-526).
T1 construct: whole, on cells; also called CHO-CEACAM1; CEACAM1 on cells
T1 sequence (looked up): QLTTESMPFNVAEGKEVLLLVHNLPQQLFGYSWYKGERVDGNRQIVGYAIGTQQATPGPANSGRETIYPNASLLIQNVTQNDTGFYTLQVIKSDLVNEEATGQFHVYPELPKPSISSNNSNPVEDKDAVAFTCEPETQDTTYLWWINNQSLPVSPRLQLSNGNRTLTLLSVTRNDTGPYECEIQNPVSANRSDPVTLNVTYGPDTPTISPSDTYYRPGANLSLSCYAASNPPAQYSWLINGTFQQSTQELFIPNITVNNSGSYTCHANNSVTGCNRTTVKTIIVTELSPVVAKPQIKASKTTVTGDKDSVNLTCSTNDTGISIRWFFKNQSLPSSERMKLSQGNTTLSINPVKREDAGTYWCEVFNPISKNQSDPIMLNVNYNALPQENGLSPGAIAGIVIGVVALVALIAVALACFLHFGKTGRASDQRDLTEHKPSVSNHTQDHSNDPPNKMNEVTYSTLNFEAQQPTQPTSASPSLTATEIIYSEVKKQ
Description: flow cytometry on CEACAM1-transfected CHO cells, fluorochrome-conjugated anti-human IgG [1/2) B]. The source says:
The human CEACAM5 and CEACAM1 genes were cloned into pcDNA3.1, and the vector was subsequently stably transfected into CHO cells. […] Binding of the antibodies was detected using fluorochrome-conjugated anti-human IgG and analyzed using flow cytometry.
(In general: A flow cytometer gives signals particle by particle.)

Assay [3] addresses T2, human CEACAM5 (hCEACAM-5, #4128-CM-050, R&D Systems) (human, UniProt P06731 35-685).
T2 construct: Bought protein; also called Human CEACAM5-His; monomeric human CEACAM5-His
T2 sequence (looked up): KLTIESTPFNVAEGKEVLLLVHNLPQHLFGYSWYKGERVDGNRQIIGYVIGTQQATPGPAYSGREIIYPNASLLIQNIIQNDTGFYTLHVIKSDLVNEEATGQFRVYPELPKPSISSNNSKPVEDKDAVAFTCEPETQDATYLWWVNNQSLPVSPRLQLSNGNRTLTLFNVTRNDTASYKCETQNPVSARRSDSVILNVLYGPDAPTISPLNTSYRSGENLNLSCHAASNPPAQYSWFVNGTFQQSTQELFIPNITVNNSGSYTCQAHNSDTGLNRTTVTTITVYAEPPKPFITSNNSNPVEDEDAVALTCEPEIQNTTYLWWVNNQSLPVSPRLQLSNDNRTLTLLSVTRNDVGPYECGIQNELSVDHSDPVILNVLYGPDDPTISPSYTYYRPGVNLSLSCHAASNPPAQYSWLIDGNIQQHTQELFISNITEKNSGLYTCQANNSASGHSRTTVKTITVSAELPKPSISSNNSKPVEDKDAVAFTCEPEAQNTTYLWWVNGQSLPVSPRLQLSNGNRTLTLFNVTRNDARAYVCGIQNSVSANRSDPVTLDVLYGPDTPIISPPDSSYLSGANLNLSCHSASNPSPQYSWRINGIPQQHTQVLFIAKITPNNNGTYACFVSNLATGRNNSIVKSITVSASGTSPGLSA
Description: dual target ELISA; hCEACAM-5 coated, bsAb titrated, detection with biotinylated hCD40-muIg and streptavidin-HRP, luminescence; signal needs both targets [1/2) B]. On the procedure: (§1) 96-well plates were coated with 0.5 μg/mL antigen, hCEACAM-1 (2244-CM-050, R&D Systems), hCEACAM-5 (4128-CM-050, R&D Systems), hCEACAM-6 (3934-CM-050, R&D Systems) or CEACAM-8 (9639-CM-050, R&D Systems) in PBS over night at 4° C. After washing in PBS/0.05% Tween 20 (PBST), the plates were blocked with PBST, 2% BSA for at least 30 minutes at room temperature before a second round of washing. RUBY bsAbs, diluted in PBST, 0.5% BSA, were then added and allowed to bind for at least 1 hour at room temperature. […] Finally, a final round of washing was performed and bound complexes detected using SuperSignal Pico Luminescent as substrate and luminescence signals were measured using Fluostar Optima.
In general terms: ELISA stands for enzyme-linked immunosorbent assay.

The target of assay [4] is T3, CEACAM-8 (#9639-CM-050, R&D Systems) (UniProt P31997 35-320, limits assumed).
T3 construct: Bought protein
T3 sequence (looked up): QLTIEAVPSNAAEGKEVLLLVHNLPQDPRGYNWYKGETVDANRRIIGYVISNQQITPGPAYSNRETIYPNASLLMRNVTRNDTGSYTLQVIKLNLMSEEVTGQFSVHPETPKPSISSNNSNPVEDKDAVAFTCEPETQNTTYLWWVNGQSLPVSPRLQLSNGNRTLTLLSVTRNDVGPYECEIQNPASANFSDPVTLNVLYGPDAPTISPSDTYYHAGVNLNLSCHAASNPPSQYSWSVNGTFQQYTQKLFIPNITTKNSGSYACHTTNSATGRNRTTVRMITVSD
Description: ELISA; antigen coated at 0.5 µg/mL, bsAb titrated, anti-human kappa-HRP, luminescence [3/7) Multi40]. On the procedure:
as §1

Assay [5] deals with T4, human CEACAM5 expressed on cells (CHO-CEACAM5; MKN45, LS174T tumor cells) (human, UniProt P06731 35-685, GPI anchor on the C-terminal residue (685); heavily N-glycosylated).
T4 construct: also called CEACAM5 on cells; CEA expressed on cells
T4 sequence: T2 sequence (looked up)
Description: flow cytometry on LS174T tumor cells (intermediate CEACAM5), fluorochrome-conjugated anti-human IgG [2/3) E].

The target in assay [6] is T2, human CEACAM5 (hCEACAM-5, #4128-CM-050, …). The assay can be described thus: ELISA; antigen coated at 0.5 µg/mL, bsAb titrated, anti-human kappa-HRP, luminescence [3/7) Multi39]. On the procedure:
as §1

Positions count from the first letter of the chain named.

Sequence of human CD40 expressed on cells (CD40 reporter cells, HEK Blue CD40L cells, B cells, Raji cells) (P25942 21-277): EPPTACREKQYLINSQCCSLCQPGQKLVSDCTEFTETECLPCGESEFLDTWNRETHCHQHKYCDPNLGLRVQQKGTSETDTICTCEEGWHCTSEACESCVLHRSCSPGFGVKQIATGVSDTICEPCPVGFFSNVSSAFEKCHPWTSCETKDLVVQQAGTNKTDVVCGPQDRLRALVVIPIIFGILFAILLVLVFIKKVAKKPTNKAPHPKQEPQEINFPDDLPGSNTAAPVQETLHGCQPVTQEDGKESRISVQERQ

B1: ffAC_05337 (bispecific antibody, human IgG1, kappa, L234A L235A)
heavy: not shown
light: DIQMTQSPSSLSASVGDRVTITCRASQSISSYLNWYQEKPGKAPKLLIYAASSLQSGVPSRFSGSGSGTDFTLTISSLQPEDFATYYCQQAGNPHTFGQGTKLEIKRTVAAPSVFIFPPSDEQLKSGTASVVCYLNNFYPREAKVQWKVDNALQSGNSQESVTEQDSKDSTYSLWSTLTLSKADYEKHKVYACEVTHQGLSSPVTKSFNRGEC
chain: EVQLLESGGGLVQPGGSLRLSCAASGFTFSTYGMHWVREAPGKGLEWLSYISGGSSYIFYADSVKGRFTISRDNSKNTLYLQMNSLRAEDTAVYYCARILRGGSGMDLWGQGTLVTVSSASTKGPSVFPLAPSSKSTSGGTAALGCLVKDYFPEPVTVSWNSGALTSGVHTFPAVLQSSGLYSLTSVVEVPSSSLGTQTYICNVNHKPSNTKVDKKVEPKSC
With B1, in assay [1], the “EC50 (nM), HEK Blue CD40L SEAP reporter, CHO-CEACAM5 crosslinking, 0 Raji sink cells/well” value came out at 0.04 nM; the “EC50 (nM), HEK Blue CD40L SEAP reporter, CHO-CEACAM5 crosslinking, 10 000 Raji sink cells/well” value (shortened to “EC50 (nM) … 10 000 Raji sink cells/well”) came to 0.08 nM; the “EC50 (nM), HEK Blue CD40L SEAP reporter, CHO-CEACAM5 crosslinking, 30 000 Raji sink cells/well” value (shortened to “EC50 (nM) … 30 000 Raji sink cells/well”) came out at 0.11 nM; the “EC50 (nM), HEK Blue CD40L SEAP reporter, CHO-CEACAM5 crosslinking, 90 000 Raji sink cells/well” value (shortened to “EC50 (nM) … 90 000 Raji sink cells/well”) was found to be 0.41 nM.

B2: Multi42 (bispecific antibody, human IgG1, kappa, L234A L235A)
heavy: not shown
light: EIVLTQSPGTLSLSPGERATLSCRASQSVSSSYLAWYQEKPGQAPRLLIYGASSRATGIPDRFSGSGSGTDFTLTISRLEPEDFAVYYCQQYWYPLTFGQGTKLEIKRTVAAPSVFIFPPSDEQLKSGTASVVCYLNNFYPREAKVQWKVDNALQSGNSQESVTEQDSKDSTYSLWSTLTLSKADYEKHKVYACEVTHQGLSSPVTKSFNRGEC
chain: B1 chain
Regarding B2, in assay [1], the “EC50 (nM), HEK Blue CD40L SEAP reporter, CHO-CEACAM5 crosslinking, 0 Raji sink cells/well” value was found to be 0.04 nM; the “EC50 (nM) … 10 000 Raji sink cells/well” value was 0.06 nM; the “EC50 (nM) … 30 000 Raji sink cells/well” value stood at 0.11 nM; the “EC50 (nM) … 90 000 Raji sink cells/well” value was 0.36 nM.

B3: Multi41 (bispecific antibody)
heavy 1: not shown
light: DIQMTQSPSSLSASVGDRVTITCRASQSISSYLNWYQEKPGKAPKLLIYAASSLQSGVPSRFSGSGSGTDFTLTISSLQPEDFATYYCQQWRSHLFTFGQGTKLEIKRTVAAPSVFIFPPSDEQLKSGTASVVCYLNNFYPREAKVQWKVDNALQSGNSQESVTEQDSKDSTYSLWSTLTLSKADYEKHKVYACEVTHQGLSSPVTKSFNRGEC
heavy 2: B1 chain
notes: Optimized RUBY format; copies: 2 + 2 + 2
Take B3: the binding result in assay [2] was “no binding (tested: 400 nM)”. For the same molecule, in assay [1], the “EC50 (nM), HEK Blue CD40L SEAP reporter, CHO-CEACAM5 crosslinking, 0 Raji sink cells/well” value worked out at 0.03 nM; the “EC50 (nM) … 10 000 Raji sink cells/well” value amounted to 0.06 nM; the “EC50 (nM) … 30 000 Raji sink cells/well” value was 0.13 nM; the “EC50 (nM) … 90 000 Raji sink cells/well” value was 0.36 nM.

B4: Multi40 (bispecific antibody)
heavy 1: not shown
light: DIQMTQSPSSLSASVGDRVTITCRASQSISSYLNWYQEKPGKAPKLLIYAASSLQSGVPSRFSGSGSGTDFTLTISSLQPEDFATYYCQQSSHGPLLTFGQGTKLEIKRTVAAPSVFIFPPSDEQLKSGTASVVCYLNNFYPREAKVQWKVDNALQSGNSQESVTEQDSKDSTYSLWSTLTLSKADYEKHKVYACEVTHQGLSSPVTKSFNRGEC
heavy 2: B1 chain
notes: as for B3
Broadly, the EC50 (read off the curve) is the concentration at which the effect is half-maximal. A low value points to greater potency. For B4, in assay [3], the “EC50 (read off the curve)” value was approximately 0.6 nM. Besides, in assay [4], the binding result was “no binding (tested: 100 nM)”.

B5: AC_05337 (bispecific antibody)
heavy 1: not shown
light: B1 light
heavy 2: B1 chain with K65R, K76E, T78A, T185S
As for B5, the “EC50 (read off the curve)” value in assay [5] was approximately 4 nM.

B6: Multi39 (bispecific antibody)
heavy 1: not shown
light: not shown
heavy 2: EVQLLESGGGLVQPGGSLRLSCAASGFTFYDHAMSWVREAPGKGLEWVSAISGSYGSTGYADSVKGRFTISRDNSKNTLYLQMNSLRAEDTAVYYCARWGGWAGDIDYWGQGTLVTVSSASTKGPSVFPLAPSSKSTSGGTAALGCLVKDYFPEPVTVSWNSGALTSGVHTFPAVLQSSGLYSLTSVVEVPSSSLGTQTYICNVNHKPSNTKVDKKVEPKSC
notes: as for B3
As to B6, in assay [6], the “EC50 (read off the curve)” value was 1 to 2 nM.

(Values after patent US20260273049A1 (ALLIGATOR BIOSCIENCE, published 2026).)
